From patent US7629437

Biological target: T1, Ac-Leu-Thr-Phe-Lys-ACC
T1 chain: LTFK

B1: Cruzain (protein)
chain: APAAVDWRARGAVTAVKDQGQCGSCWAFSAIGNVECQWFLAGHPLTNLSEQMLVSCDKTDSGCSGGLMNNAFEWIVQENNGAVYTEDSYPYASGEGISPPCTTSGHTVGATITGHVELPQDEAQIAAWLAVNGPVAVAVDASSWMTYTGGVMTSCVSEQLDHGVLLVGYNDSAAVPYWIIKNSWTTQWGEEGYIRIAKGSNQCLVKEEASSAVVG
  cleavage products (HPLC and MALDI of the digest): Product fragments corresponding to cleavage between Thr-Phe were observed (data not shown)
